Source: patent US20260144882A1 (BIO THERA SOLUTIONS, published 2026)

Target: T1, human Nectin-4 extracellular antigen hNectin-4-His (human, UniProt Q96NY8 32-349)
T1 construct: C-terminal 8xHis tag included
T1 sequence: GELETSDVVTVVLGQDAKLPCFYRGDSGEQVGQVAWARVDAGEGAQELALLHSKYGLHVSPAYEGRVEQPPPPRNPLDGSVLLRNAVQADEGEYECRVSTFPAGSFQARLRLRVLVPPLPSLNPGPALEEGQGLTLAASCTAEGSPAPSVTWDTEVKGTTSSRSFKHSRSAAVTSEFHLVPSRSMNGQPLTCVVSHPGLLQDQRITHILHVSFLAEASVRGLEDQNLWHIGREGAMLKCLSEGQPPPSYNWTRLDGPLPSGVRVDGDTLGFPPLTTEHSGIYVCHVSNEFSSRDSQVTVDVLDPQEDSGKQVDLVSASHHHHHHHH
Experiment: ELISA, phage scFv supernatant 1:50

B1: 1G8-2H11 scFv (scFv, V domains shown)
VH: EVQLVESGGGLVQPGGSLRLSCAASGFNFDNYAMSWVRQAPGKGLEWVSRIYGWDWYASYADSVKGRFTISRDNSKNTLYLQMNSLRAEDTAVYYCARQTEDRSYGYDLDYWGQGTLVTVSS
VL: DIQMTQSPSSLSASVGDRVTITCRASQGISSYLAWYQQKPGKAPKLLIYAASSLQSGVPSRFSGSGSGTDFTLTISSLQPEDFATYYCQQHYTTPPTFGQGTKVEIKR
notes: phage clone supernatant
  OD value: 1.35 OD

B2: 1G8-2B12 scFv (scFv, V domains shown)
VH: EVQLVESGGGLVQPGGSLRLSCAASGDTFGTSSMSWVRQAPGKGLEWVSRIDTWGWYKFYADSVKGRFTISRDNSKNTLYLQMNSLRAEDTAVYYCARQTEDRSYGYDLDYWGQGTLVTVSS
VL: DIQMTQSPSSLSASVGDRVTITCRASQGISSYLAWYQQKPGKAPKLLIYAASSLQSGVPSRFSGSGSGTDFTLTISSLQPEDFATYYCQQHYTTPPTFGQGTKVEIKR
notes: phage clone supernatant
  OD value: 1.39 OD

B3: 10F4-2A9 scFv (scFv, V domains shown)
VH: EVQLVESGGGLVQPGGSLRLSCAASGYTFTDYDMSWVRQAPGKGLEWVSGIKQYKGYTSYADSVKGRFTISRDNSKNTLYLQMNSLRAEDTAVYYCAREYSDVVDYVSVRTPLDYWGQGTLVTVSS
VL: DIQMTQSPSSLSASVGDRVTITCRASQGISSYLAWYQQKPGKAPKLLIYAASSLQSGVPSRFSGSGSGTDFTLTISSLQPEDFATYYCQQHYTTPPTFGQGTKVEIKR
notes: phage clone supernatant
  OD value: 1.57 OD

B4: 1G8-2G12 scFv (scFv, V domains shown)
VH: EVQLVESGGGLVQPGGSLRLSCAASGFTFSNNAMSWVRQAPGKGLEWVSAIYASTDGRSYADSVKGRFTISRDNSKNTLYLQMNSLRAEDTAVYYCARQTEDRSYGYDLDYWGQGTLVTVSS
VL: DIQMTQSPSSLSASVGDRVTITCRASQGISSYLAWYQQKPGKAPKLLIYAASSLQSGVPSRFSGSGSGTDFTLTISSLQPEDFATYYCQQHYTTPPTFGQGTKVEIKR
notes: phage clone supernatant
  OD value: 1.5 OD

B5: 1G8-1F5 scFv (scFv, V domains shown)
VH: EVQLVESGGGLVQPGGSLRLSCAASGDIFDTYMSWVRQAPGKGLEWVSRIYTDGSSDYADSVKGRFTISRDNSKNTLYLQMNSLRAEDTAVYYCARQTEDRSYGYDLDYWGQGTLVTVSS
VL: DIQMTQSPSSLSASVGDRVTITCRASQGISSYLAWYQQKPGKAPKLLIYAASSLQSGVPSRFSGSGSGTDFTLTISSLQPEDFATYYCQQHYTTPPTFGQGTKVEIKR
notes: phage clone supernatant
  OD value: 1.56 OD

B6: 10F4-1A3 scFv (scFv, V domains shown)
VH: EVQLVESGGGLVQPGGSLRLSCAASGYSFSNYDMSWVRQAPGKGLEWVSGIKGWKSYTGYADSVKGRFTISRDNSKNTLYLQMNSLRAEDTAVYYCAREYSDVVDYVSVRTPLDYWGQGTLVTVSS
VL: DIQMTQSPSSLSASVGDRVTITCRASQGISSYLAWYQQKPGKAPKLLIYAASSLQSGVPSRFSGSGSGTDFTLTISSLQPEDFATYYCQQHYTTPPTFGQGTKVEIKR
notes: phage clone supernatant
  OD value: 1.53 OD

B7: 10F4-1 scFv (scFv, V domains shown)
VH: EVQLVESGGGLVQPGGSLRLSCAASGDSFTNYWMSWVRQAPGKGLEWVSGISQGGSYAYYADSVKGRFTISRDNSKNTLYLQMNSLRAEDTAVYYCAREYSDVVDYVSVRTPLDYWGQGTLVTVSS
VL: DIQMTQSPSSLSASVGDRVTITCRASQGISSYLAWYQQKPGKAPKLLIYAASSLQSGVPSRFSGSGSGTDFTLTISSLQPEDFATYYCQQHYTTPPTFGQGTKVEIKR
notes: phage clone supernatant
  OD value: 1.39 OD

B8: 10F4-1D3 scFv (scFv, V domains shown)
VH: EVQLVESGGGLVQPGGSLRLSCAASGFSFYDYDMSWVRQAPGKGLEWVSSIIQSGSTAFYADSVKGRFTISRDNSKNTLYLQMNSLRAEDTAVYYCAREYSDVVDYVSVRTPLDYWGQGTLVTVSS
VL: DIQMTQSPSSLSASVGDRVTITCRASQGISSYLAWYQQKPGKAPKLLIYAASSLQSGVPSRFSGSGSGTDFTLTISSLQPEDFATYYCQQHYTTPPTFGQGTKVEIKR
notes: phage clone supernatant
  OD value: 1.52 OD

B9: 10F4-1B2 scFv (scFv, V domains shown)
VH: EVQLVESGGGLVQPGGSLRLSCAASGFSFGNYWMSWVRQAPGKGLEWVSGIDGHSSYAFYADSVKGRFTISRDNSKNTLYLQMNSLRAEDTAVYYCAREYSDVVDYVSVRTPLDYWGQGTLVTVSS
VL: DIQMTQSPSSLSASVGDRVTITCRASQGISSYLAWYQQKPGKAPKLLIYAASSLQSGVPSRFSGSGSGTDFTLTISSLQPEDFATYYCQQHYTTPPTFGQGTKVEIKR
notes: phage clone supernatant
  OD value: 1.64 OD

B10: 10F4-1A1 scFv (scFv, V domains shown)
VH: EVQLVESGGGLVQPGGSLRLSCAASGFSFDNYDMSWVRQAPGKGLEWVSSIKPGSAYKFYADSVKGRFTISRDNSKNTLYLQMNSLRAEDTAVYYCAREYSDVVDYVSVRTPLDYWGQGTLVTVSS
VL: DIQMTQSPSSLSASVGDRVTITCRASQGISSYLAWYQQKPGKAPKLLIYAASSLQSGVPSRFSGSGSGTDFTLTISSLQPEDFATYYCQQHYTTPPTFGQGTKVEIKR
notes: phage clone supernatant
  OD value: 1.69 OD

B11: 10F4-1C10 scFv (scFv, V domains shown)
VH: EVQLVESGGGLVQPGGSLRLSCAASGYNFGSYDMSWVRQAPGKGLEWVSGIKTYGGNTHYADSVKGRFTISRDNSKNTLYLQMNSLRAEDTAVYYCAREYSDVVDYVSVRTPLDYWGQGTLVTVSS
VL: DIQMTQSPSSLSASVGDRVTITCRASQGISSYLAWYQQKPGKAPKLLIYAASSLQSGVPSRFSGSGSGTDFTLTISSLQPEDFATYYCQQHYTTPPTFGQGTKVEIKR
notes: phage clone supernatant
  OD value: 1.52 OD

B12: 10F4-1B5 scFv (scFv, V domains shown)
VH: EVQLVESGGGLVQPGGSLRLSCAASGFNFTDYWMSWVRQAPGKGLEWVSSIIGDDSTNHYADSVKGRFTISRDNSKNTLYLQMNSLRAEDTAVYYCAREYSDVVDYVSVRTPLDYWGQGTLVTVSS
VL: DIQMTQSPSSLSASVGDRVTITCRASQGISSYLAWYQQKPGKAPKLLIYAASSLQSGVPSRFSGSGSGTDFTLTISSLQPEDFATYYCQQHYTTPPTFGQGTKVEIKR
notes: phage clone supernatant
  OD value: 1.53 OD

B13: 10F4-1C4 scFv (scFv, V domains shown)
VH: EVQLVESGGGLVQPGGSLRLSCAASGFNFTDYWMSWVRQAPGKGLEWVSSIIGDDSTNHYADSVKGRFTISRDNSKNTLYLQMNSLRAEDTAVYYCAREYSDVVDYVSVRTPLDYWGQGTLVTVSS
VL: DIQMTQSPSSLSASVGDRVTITCRASQGISSYLAWYQQKPGKAPKLLIYAASSLQSGVPSRFSGSGSGTDFTLTISSLQPEDFATYYCQQHYTTPPTFGQGTKVEIKR
notes: phage clone supernatant
  OD value: 1.46 OD

B14: 10F4-1C3 scFv (scFv, V domains shown)
VH: EVQLVESGGGLVQPGGSLRLSCAASGYSFSDYWMSWVRQAPGKGLEWVSSIKQTGGVKHYADSVKGRFTISRDNSKNTLYLQMNSLRAEDTAVYYCAREYSDVVDYVSVRTPLDYWGQGTLVTVSS
VL: DIQMTQSPSSLSASVGDRVTITCRASQGISSYLAWYQQKPGKAPKLLIYAASSLQSGVPSRFSGSGSGTDFTLTISSLQPEDFATYYCQQHYTTPPTFGQGTKVEIKR
notes: phage clone supernatant
  OD value: 1.59 OD

B15: 10F4-1B7 scFv (scFv, V domains shown)
VH: EVQLVESGGGLVQPGGSLRLSCAASGFNFSGFDMSWVRQAPGKGLEWVSGIKAYKSTADYADSVKGRFTISRDNSKNTLYLQMNSLRAEDTAVYYCAREYSDVVDYVSVRTPLDYWGQGTLVTVSS
VL: DIQMTQSPSSLSASVGDRVTITCRASQGISSYLAWYQQKPGKAPKLLIYAASSLQSGVPSRFSGSGSGTDFTLTISSLQPEDFATYYCQQHYTTPPTFGQGTKVEIKR
notes: phage clone supernatant
  OD value: 1.6 OD
